These results are taken from article PMC7913688, “Human Rev1 relies on insert-2 to promote selective binding and accurate replication of stabilized G-quadruplex motifs”.

Positions count from the first letter of the chain named.

Holding throughout (settings): protein: recombinant, label: 5'-FAM
Data set [1] addresses T1, hRev1 330-833 E466K (human, UniProt Q9UBZ9 330-833, E466K).
T1 sequence: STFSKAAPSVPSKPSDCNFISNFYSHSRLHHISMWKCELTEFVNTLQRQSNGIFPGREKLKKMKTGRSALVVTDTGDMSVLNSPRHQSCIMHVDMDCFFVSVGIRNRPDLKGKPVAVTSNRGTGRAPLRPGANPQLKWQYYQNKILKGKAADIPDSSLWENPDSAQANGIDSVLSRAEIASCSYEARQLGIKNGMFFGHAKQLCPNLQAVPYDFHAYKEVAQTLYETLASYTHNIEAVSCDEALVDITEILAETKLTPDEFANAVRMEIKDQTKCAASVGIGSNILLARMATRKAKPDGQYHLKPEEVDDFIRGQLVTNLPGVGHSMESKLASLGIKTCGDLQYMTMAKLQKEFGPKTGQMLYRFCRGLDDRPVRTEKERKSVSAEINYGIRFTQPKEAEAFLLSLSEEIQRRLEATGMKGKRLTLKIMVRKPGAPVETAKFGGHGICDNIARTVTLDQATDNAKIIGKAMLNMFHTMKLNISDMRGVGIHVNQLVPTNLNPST
Kind of data set: fluorescence polarization; 100 mM KCl?; Fluorescence polarization: 1 nM FAM-DNA, 100 mM KCl or LiCl; DNA annealed in 50 mM HEPES pH 7.5; full buffer as in cited ref 17, temperature not stated. Footprinting: 50 mM HEPES pH 7.5, 100 mM KCl, 10 uM protein, 30 uM ssDNA, room temperature. For orientation: In fluorescence polarisation assays a small probe gives low polarisation when free and higher when bound to something large.

In data set [2] the target is T2, hRev1 330-833 polymerase core (human, UniProt Q9UBZ9 330-833).
T2 sequence: T1 sequence with K137E
Kind of data set: fluorescence polarization; 100 mM KCl; Fluorescence polarization: 1 nM FAM-DNA, 100 mM KCl or LiCl; DNA annealed in 50 mM HEPES pH 7.5; full buffer as in cited ref 17, temperature not stated. Footprinting: 50 mM HEPES pH 7.5, 100 mM KCl, 10 uM protein, 30 uM ssDNA, room temperature.

Data set [3] deals with T3, hRev1 full-length (human, UniProt Q9UBZ9 1-1251).
T3 sequence: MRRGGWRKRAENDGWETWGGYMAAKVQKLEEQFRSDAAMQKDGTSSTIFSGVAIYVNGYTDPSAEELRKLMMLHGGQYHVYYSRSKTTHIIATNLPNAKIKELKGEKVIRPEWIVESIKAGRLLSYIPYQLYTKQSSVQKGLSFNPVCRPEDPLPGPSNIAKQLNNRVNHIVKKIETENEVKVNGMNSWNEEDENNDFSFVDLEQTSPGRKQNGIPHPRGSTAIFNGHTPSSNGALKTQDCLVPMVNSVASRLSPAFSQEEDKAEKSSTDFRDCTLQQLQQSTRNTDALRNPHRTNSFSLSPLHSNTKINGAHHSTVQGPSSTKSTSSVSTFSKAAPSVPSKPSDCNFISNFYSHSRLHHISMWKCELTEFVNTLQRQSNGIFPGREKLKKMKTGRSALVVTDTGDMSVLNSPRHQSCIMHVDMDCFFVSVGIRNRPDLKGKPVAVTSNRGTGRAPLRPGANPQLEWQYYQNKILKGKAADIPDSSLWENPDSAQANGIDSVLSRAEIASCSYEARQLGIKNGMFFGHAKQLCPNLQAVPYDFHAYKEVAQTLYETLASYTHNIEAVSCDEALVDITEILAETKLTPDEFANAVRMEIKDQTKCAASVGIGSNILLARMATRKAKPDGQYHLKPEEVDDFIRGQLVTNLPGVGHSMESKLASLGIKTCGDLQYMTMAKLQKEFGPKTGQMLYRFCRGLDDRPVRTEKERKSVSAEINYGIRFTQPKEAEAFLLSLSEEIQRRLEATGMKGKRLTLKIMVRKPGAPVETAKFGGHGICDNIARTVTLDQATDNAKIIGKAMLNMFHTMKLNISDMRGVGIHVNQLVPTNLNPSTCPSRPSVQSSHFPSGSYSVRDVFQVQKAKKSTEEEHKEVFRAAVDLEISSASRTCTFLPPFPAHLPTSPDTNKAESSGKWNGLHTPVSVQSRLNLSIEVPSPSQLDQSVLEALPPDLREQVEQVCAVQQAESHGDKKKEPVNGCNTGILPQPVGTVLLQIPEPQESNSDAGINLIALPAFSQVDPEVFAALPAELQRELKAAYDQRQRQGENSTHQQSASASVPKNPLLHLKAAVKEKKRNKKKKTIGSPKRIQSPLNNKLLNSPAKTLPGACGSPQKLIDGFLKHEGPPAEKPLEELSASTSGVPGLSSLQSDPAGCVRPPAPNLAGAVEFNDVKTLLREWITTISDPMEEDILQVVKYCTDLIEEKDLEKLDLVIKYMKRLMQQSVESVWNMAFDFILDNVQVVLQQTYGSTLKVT
The data set is described as above.

[4] abbreviates: parallel G4 (1:2:1 loops) in K+.

B1: Non-G4 Myc control ss (ssDNA)
DNA: AGCGTGCGTAGCGTGCGTTATGAGATGAT
Broadly, the Kd is the constant that tells how readily two partners part at equilibrium. In the case of B1, the equilibrium dissociation constant (Kd) in data set [1] amounted to 1300 ± 300 nM; in data set [2] it was 910 ± 120 nM; in data set [3] it was 110 ± 20 nM.

B2: Myc 14/23 ss G4 (structured_DNA)
DNA: AGGGTGGGTAGGGTGGGTTATGAGATGAT
With B2, the dissociation constant Kd in data set [1] (setting [4]) is 43 ± 16 nM; in data set [2] (setting [4]), 37 ± 7 nM; in data set [3] (setting [4]), 5 ± 1 nM.
